Measurements taken from publication PMC4698195 (Carbohydrate research, 2015).

Assays:
[1] = target: UDP-N-acetylglucosamine (UDP-GlcNAc) 2-epimerase (NmSacA) (Neisseria meningitidis, UniProt A0A0U1RGY0); assay type: biochemical
[2] = tested on: CC(=O)N[C@H]1[C@@H](OP(=O)(O)OP(=O)(O)OC[C@H]2O[C@@H](n3ccc(=O)[nH]c3=O)[C@H](O)[C@@H]2O)O[C@H](CO)[C@@H](O)[C@@H]1O; assay: purified protein
[3] = tested on: CC(=O)N[C@@H]1[C@@H](OP(=O)(O)OP(=O)(O)OC[C@H]2O[C@@H](N3CCC(=O)NC3=O)[C@H](O)[C@@H]2O)O[C@H](CO)[C@@H](O)[C@@H]1O; assay: purified protein
[4] = tested on: CCC(=O)N[C@@H]1[C@@H](OP(=O)(O)OP(=O)(O)OC[C@H]2O[C@@H](n3ccc(=O)[nH]c3=O)[C@H](O)[C@@H]2O)O[C@H](CO)[C@@H](O)[C@@H]1O; assay: purified protein
[5] = tested on: CC(=O)N[C@@H]1[C@@H](OP(=O)(O)OP(=O)(O)OC[C@H]2O[C@@H](n3ccc(=O)[nH]c3=O)[C@H](O)[C@@H]2O)O[C@H](CO)[C@@H](O)[C@@H]1O; assay: purified protein
[6] = tested on: O=C(CO)N[C@@H]1[C@@H](OP(=O)(O)OP(=O)(O)OC[C@H]2O[C@@H](n3ccc(=O)[nH]c3=O)[C@H](O)[C@@H]2O)O[C@H](CO)[C@@H](O)[C@@H]1O; assay: purified protein

Sequence of UDP-N-acetylglucosamine (UDP-GlcNAc) 2-epimerase (NmSacA) (A0A0U1RGY0 whole entry): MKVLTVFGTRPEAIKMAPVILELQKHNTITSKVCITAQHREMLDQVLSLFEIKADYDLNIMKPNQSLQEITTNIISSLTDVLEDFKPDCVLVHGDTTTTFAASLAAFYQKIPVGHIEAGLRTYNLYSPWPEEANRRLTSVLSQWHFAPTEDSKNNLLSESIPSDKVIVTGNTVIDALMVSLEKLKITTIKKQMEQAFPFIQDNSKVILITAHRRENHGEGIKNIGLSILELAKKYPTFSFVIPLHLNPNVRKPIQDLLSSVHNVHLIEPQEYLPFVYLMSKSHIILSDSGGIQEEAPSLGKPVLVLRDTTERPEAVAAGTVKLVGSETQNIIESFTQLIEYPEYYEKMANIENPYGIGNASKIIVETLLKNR

O=c1ccn([C@@H]2O[C@H](COP(=O)(O)OP(=O)(O)O)[C@@H](O)[C@H]2O)c(=O)[nH]1 [UDP]
Ki [1]: 0.8 mM

CC(=O)NC1=CO[C@H](CO)[C@@H](O)[C@@H]1O [D, 2-acetamidoglucal]
Ki [1]: 14 mM

UDP-N-acetylglucosamine (UDP-GlcNAc) 2-epimerase (NmSacA) (Neisseria meningitidis Z2491)
Km [2]: 3.6 ± 0.5 mM | kcat [2]: 31 ± 2 s⁻¹ | kcat/Km [2]: 8600 M⁻¹ s⁻¹ | Km [3]: 63 ± 7.0 mM | kcat [3]: 6.7 ± 0.5 s⁻¹ | kcat/Km [3]: 110 M⁻¹ s⁻¹ | Km [4]: 51 ± 5.0 mM | kcat [4]: 7.8 ± 0.3 s⁻¹ | kcat/Km [4]: 150 M⁻¹ s⁻¹ | Km [5]: 5.2 ± 1.1 mM | kcat [5]: 52 ± 5 s⁻¹ | kcat/Km [5]: 10000 M⁻¹ s⁻¹ | Km [6]: 20 ± 1.9 mM | kcat [6]: 4.2 ± 0.2 s⁻¹ | kcat/Km [6]: 210 M⁻¹ s⁻¹
